Results as given in the supplement of paper PMC10567573.
± gives the standard deviation.

Test: protein stability index of a GFP-peptide fusion (GPS, HEK-293T) (PSI 1-6); higher = more stable
[1] = treatment: DMSO, c terminus: a fixed tail appended
[2] = treatment: MLN4924 1 uM, 8 h, c terminus: a fixed tail appended
[3] = treatment: DMSO, c terminus: native
[4] = treatment: MLN4924 1 uM, 8 h, c terminus: native
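Note: 24-mer peptide tiles fused after GFP, lentivirally expressed, FACS-sorted into six equal bins by GFP/DsRed ratio, decoded by Illumina sequencing, PSI is the read-weighted mean bin number.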

| Sequence | protein stability index [1] | protein stability index [2] | protein stability index [3] | protein stability index [4] |
| --- | --- | --- | --- | --- |
| MNLELLESFGQNYPEEADGTLDCI [RBBP5] | 4.77 ± 0.25 | 4.89 ± 0.12 | – | – |
| KVPESLVRSLRGEEPVPRERDRDP [LURAP1L] | 5.28 ± 0.13 | 5.25 ± 0.33 | – | – |
| PPPPPPHNSGPPPPPARGRGAPPP [WASL] | 5.14 ± 0.2 | 5.19 ± 0.16 | – | – |
| RYIVNGSHEANKLQDMLDGFIKKF [EIF5] | 1.98 ± 0.23 | 2.17 ± 0.34 | – | – |
| KTPLHQKHAAFVTPDQKYSMDNTP [MYBL2] | 4.14 ± 0.38 | 4.23 ± 0.2 | – | – |
| SFWNDCISSGLRGCMLIELALRGR [GOLPH3] | 2.71 ± 0.35 | 2.66 ± 0.75 | – | – |
| SNTGSESNSATVEEPPTDPIPEDE [SMARCE1] | 5.48 ± 0.45 | 5.33 ± 0.51 | – | – |
| SIGDIESCKLVRDKITGQSLGYGF [ELAVL3] | 2.72 ± 0.21 | 2.55 ± 0.17 | – | – |
| PFLFFGHFWQLFNALTLFNLAQDP [TMEM120A] | 3.35 ± 0.086 | 3.08 ± 0.13 | – | – |
| LTLDLPTAPLYKDEKEQLIIPQVP [USP39] | 3.91 ± 0.33 | 3.92 ± 0.25 | – | – |
| MTSLTQRSSGLVQRRTEASRNAAD [GOLPH3] | 4.89 ± 0.27 | 5.03 ± 0.19 | – | – |
| IDLATWNFQFLPQVNGHPDPFDEI [PTPN9] | 2.43 ± 0.22 | 2.54 ± 0.35 | – | – |
| TCQKFLIQYNRRQLLILLQNCTDE [POP5] | 2.73 ± 0.31 | 2.36 ± 0.21 | – | – |
| TAYIRVKVDGPRSPSYGRSRSRSR [SRSF1] | 3.75 ± 0.21 | 4 ± 0.29 | – | – |
| NWEAPPGAFDSFLLRFGVPSPSTL [TNXB] | 3.06 ± 0.37 | 2.85 ± 0.28 | – | – |
| HSLRAVSTDPPHHDHHDEFCLMP [BEX1] | – | – | 3 ± 0.6 | 3.76 ± 0.5 |
| QLQVESNSSQLLLRRHAGLLDGLA [SCARA5] | 2.68 ± 0.26 | 2.9 ± 0.17 | – | – |
| PGFYATYESTLFEDQVPALEAPED [MIA2] | 5.18 ± 0.27 | 4.92 ± 0.36 | – | – |
| NTIAFRHLFLLGYSDGADDTFAAY [MCOLN1] | 2.46 ± 0.66 | 2.33 ± 0.12 | – | – |
| PKKIMPEAHSHYLYGHMLSAFRD [PPFIA4] | – | – | 2.35 ± 0.23 | 2.77 ± 0.35 |
| LYVVIPTRRSTAEAFQIVLSHLLG [SPNS1] | 2.72 ± 0.4 | 2.71 ± 0.33 | – | – |
| AEGARPLRENVPRVIMIVTDGRPQ [MATN2] | 2.83 ± 0.61 | 3.56 ± 0.35 | – | – |
| TSGKRYVYRFVCDLQNLLGFTPEE [ETS2] | 2.56 ± 0.63 | 2.89 ± 0.84 | – | – |

| Sequence | protein stability index [1] | protein stability index [2] | protein stability index [3] | protein stability index [4] |
| --- | --- | --- | --- | --- |
| KPKKKKEKKEKEKKKKDKEKEKEK [BRD3] | 5.26 ± 0.097 | 5.19 ± 0.14 | – | – |
| LSNLVGKPSENHPLHNSGLLSLDP [MED27] | 3.87 ± 0.28 | 4.13 ± 0.26 | – | – |
| ADGVKPQTNSTKNSAAATSPKGTL [CAMK2B] | 5.24 ± 0.14 | 5.4 ± 0.3 | – | – |
| AIILSSCLLGLGSLVLILSLSYTV [SLC2A12] | 3.06 ± 0.4 | 3.26 ± 0.097 | – | – |
| PKAQPQTWKSGKQTMLSHYRPFYV [TRIM29] | 2.57 ± 0.17 | 2.06 ± 0.39 | – | – |
| LLLAYNSSARIPKCPWMEGGEMSP [INTS4] | 2.27 ± 0.32 | 2.17 ± 0.14 | – | – |
| YAATTTPFTPLHIKVKPKRVGIFL [TRIM39] | 2.52 ± 0.58 | 2.81 ± 1.1 | – | – |
| KLDTKYPYVCHAELNAIMNKNSTD [DCTD] | 3.52 ± 0.18 | 3.42 ± 0.11 | – | – |
| NPPKASAAPDCTPSLEAGNPAPAA [MYCL] | 5.34 ± 0.19 | 5.34 ± 0.23 | – | – |
| GKSFRQRPSLVIHLRIHTGEKPYK [ZNF449] | 2.72 ± 0.53 | 2.61 ± 0.65 | – | – |
| GFALDILFAIANGFSPSYEFFAVT [SLC22A15] | 3.3 ± 0.042 | 3.29 ± 1.1 | – | – |
| LKKFLYNFDNPWNFQNIPKETELP [MIA2] | 3.061 ± 0.006 | 2.66 ± 0.41 | – | – |
| PSLQHLCRMSIRRVMPTQEVQELP [WSB1] | 3.34 ± 0.43 | 2.8 ± 0.35 | – | – |
| CWDMQGKRFVAMKVVKSAQHYTET [SRPK2] | 2.34 ± 0.34 | 2.54 ± 0.3 | – | – |
| QPKCDNTARAHPAKARDLYKGRQL [SMOC2] | 4.26 ± 0.17 | 4.35 ± 0.19 | – | – |
| GVFKFLRSEAVAQLWGQKKKNSNM [ELF3] | 2.83 ± 0.18 | 2.41 ± 0.33 | – | – |
| RVAAAAGSGPSPPGSPGHDRERQP [PI4K2A] | 5.31 ± 0.5 | 5.42 ± 0.27 | – | – |
| ARYGHLDVVEYLVDRCGASVEAGG [FEM1A] | 2.81 ± 0.16 | 2.98 ± 0.43 | – | – |
| RFGVRPKVTGYLISYSSMLGAVAG [MFSD9] | 2.58 ± 0.54 | 2.29 ± 0.31 | – | – |
| LAIQARKRRPKREKHPKKPEPQQK [SRPK2] | 4.32 ± 0.2 | 4.59 ± 0.25 | – | – |
| EQLLDVKLALDMEISAYRKLLQGE [LMNB1] | 3.02 ± 0.45 | 3.13 ± 0.55 | – | – |
| HVPTVWAIDQYRVCQEVLERSRDV [RHOBTB1] | 2.83 ± 0.22 | 3.08 ± 0.3 | – | – |
| PVAAATAAEGEGSPPAVAAVAGPP [ANKRD17] | 5.54 ± 0.19 | 5.54 ± 0.094 | – | – |

| Sequence | protein stability index [1] | protein stability index [2] | protein stability index [3] | protein stability index [4] |
| --- | --- | --- | --- | --- |
| NTLKRENSSPRVMQRKQSLGKPDQ [DLC1] | 4.85 ± 0.24 | 4.83 ± 0.38 | – | – |
| HTFRATFQEPLYPALRLWEGAISI [TRIM14] | 2.85 ± 0.57 | 2.69 ± 0.71 | – | – |
| FLQVLEPGARGLWKPPDIKGKLMV [SPAG8] | 2.38 ± 0.34 | 2.26 ± 0.32 | – | – |
| PLMKPHRPWADTCSSSGKDGNLCL [HESX1] | 2.74 ± 0.16 | 2.69 ± 0.21 | – | – |
| LVMPIEDQLTQIMRTGQNTWESKN [PCMTD1] | 3.13 ± 0.13 | 3.2 ± 0.38 | – | – |
| IIDSSRSVNTHDYAKVKEFIVDIL [MATN2] | 2.23 ± 0.2 | 2.37 ± 0.22 | – | – |
| LITQQIIPVLYCMVFIAGILLNGV [P2RY14] | 3.37 ± 0.2 | 3.42 ± 0.44 | – | – |
| LPELFHKIGVGAMTWSPLACGIVS [KCNAB2] | 2.74 ± 0.42 | 2.84 ± 0.46 | – | – |
| AAFCPQLDDSTVARELAITDSEHS [RETREG3] | 5.26 ± 0.16 | 5.14 ± 0.16 | – | – |
| FPAVTVEVKSSIAGSSTWERYFIP [SLC29A1] | 2.61 ± 0.88 | 2.4 ± 0.28 | – | – |
| GTEITIAFDFDYGNCKYKVDCACL [KMT2E] | 3.01 ± 0.52 | 2.39 ± 0.5 | – | – |
| KEAKTKYPNYEFISDNSISWSAGL [FUT8] | 2.52 ± 0.25 | 2.95 ± 0.23 | – | – |
| QKRQQLSEDTLTIHGLPTEGYQAL [C22orf31] | 3.91 ± 0.12 | 3.92 ± 0.096 | – | – |
| LDRDALKQSLVVAVQDHGQPPLSA [PCDHGA10] | 4.49 ± 0.19 | 4.678 ± 0.044 | – | – |
| DVNSFVTECEPSELFQLQTYSLPP [CDS1] | 3.58 ± 0.29 | 3.54 ± 0.35 | – | – |
| FDVHPPLGKMLIGLAGYLSGYDGT [POMT2] | 2.18 ± 0.19 | 2.17 ± 0.13 | – | – |
| FQMVLEGGVCCTVTLNFNVPGEFK [GFOD1] | 3.1 ± 0.41 | 3.14 ± 0.31 | – | – |
| SPKGTLPPAALESSDSANTTIEDE [CAMK2B] | 5.64 ± 0.16 | 5.54 ± 0.29 | – | – |
| RRVDFCKDPSAIGKKQVPCFASML [CASP6] | 2.43 ± 0.17 | 2.54 ± 0.23 | – | – |
| ETLSGDRVRLDSELRNVQDVVEDY [KRT71] | 5.16 ± 0.19 | 5.36 ± 0.18 | – | – |
| PPRGRSEAPDSLNGPLGPSEASIA [SMG5] | 5.07 ± 0.27 | 5.12 ± 0.14 | – | – |
| GDTLRTFSLVLVLDLSKPNDLWPT [DYNC2LI1] | 2.89 ± 0.37 | 2.82 ± 0.32 | – | – |
| KQNKTPLDKSTTGVSEILLKTQMK [FEM1B] | 4.36 ± 0.15 | 4.2 ± 0.2 | – | – |

| Sequence | protein stability index [1] | protein stability index [2] | protein stability index [3] | protein stability index [4] |
| --- | --- | --- | --- | --- |
| AVVQLYLALPPGAEHWTKEHCGAV [WAS] | 3.03 ± 0.59 | 2.71 ± 0.31 | – | – |
| ELNKKMTNIRLPNVPSSSLPAQPN [CHMP4C] | 3.66 ± 0.4 | 3.63 ± 0.18 | – | – |
| MINLRRLLLSHIHASSYISPEKEE [PRAME] | 2.41 ± 0.26 | 2.63 ± 0.57 | – | – |
| ALPENEFKKQIWLLFEYPESSSPA [KCNA4] | 2.45 ± 0.16 | 2.44 ± 0.5 | – | – |
| DGNGGQFREVYVGKETMCTVDGLH [TRIM9] | 3.94 ± 0.37 | 4.11 ± 0.28 | – | – |
| PGSASLAQSRLEDPGQDLVPKQAI [DLX1] | 4.83 ± 0.48 | 5 ± 0.34 | – | – |
| GQLVRNDSLWHRSDSAPRNKISRF [MFF] | 3.66 ± 0.87 | 4.04 ± 0.21 | – | – |
| AMLKALLGSKHKVCMDLRANLKQV [TNNI2] | 2.42 ± 0.18 | 2.33 ± 0.43 | – | – |
| RPQHSHSNKKRPSLDGRDPGNGTH [ELOA2] | 4.94 ± 0.44 | 4.82 ± 0.39 | – | – |
| SPRSTSVTTTSSASVTTTSNASGR [KRT13] | 5.31 ± 0.2 | 5.32 ± 0.12 | – | – |
| LFAGFLPRIIKAAPSCAIMISTYE [SLC25A39] | 2.8 ± 0.31 | 3.21 ± 0.75 | – | – |
| EERALLLGRMGKHEQALFIYVHIL [VPS39] | 2.96 ± 0.41 | 2.68 ± 0.51 | – | – |
| LRLCRLWPRNPPSRLLGAAAGQRS [DNAJC4] | 2.75 ± 0.54 | 2.7 ± 0.39 | – | – |
| DSTNVEEAFKNILTEIYRIVSQKQ [RAB11B] | 2.29 ± 0.2 | 2.49 ± 0.25 | – | – |
| LLGEPLAGPELDEMLREVDLNGDG [CABP4] | 5.18 ± 0.21 | 5.36 ± 0.21 | – | – |
| PEDGRIFAQRTFDYELLQMLQIVV [PCDHGC5] | 2.19 ± 0.4 | 2.3 ± 0.36 | – | – |
| GSQAGGSGSAGQYGSDQQHHLGSG [MYOZ1] | 4.94 ± 0.23 | 5.17 ± 0.18 | – | – |
| LDSCNSLTPKSTPVKTLPFSPSQF [MYBL2] | 3.34 ± 0.2 | 3.37 ± 0.42 | – | – |
| TMLKAMFSGRMEVLTDSEGWILID [KCTD10] | 2.51 ± 0.57 | 2.75 ± 0.46 | – | – |
| GFLPWLMNEVEKTMEYSMVGRTVL [RSPH3] | 2.8 ± 0.54 | 2.94 ± 0.41 | – | – |
